The text below walks through data of paper PMC6754406 (2019).

Where a chain is given by its changes, count along the chain named. Numbers in names are those of the source. Where no end group is shown, it is not given here. [ ]: non-standard residue; d: D form. pS = N[C@@H](COP(=O)(O)O)C(=O)O

B1: GM130-S25D (phosphomimetic GM130 (1-85) mutant), non-tagged (domain or fragment)
chain: MSEETRQSKLAAAKKKLREYQQRNDPGVPTGAKKKKKIKNGSNPETTTSGGCHSPEDTPKDNAATLQPSDDTVLPGGVPSPGASL
B2: GM130-WT (wild type GM130 N-terminal region, a.a. 1-85), non-tagged (domain or fragment)
chain: B1 chain with D25S
B3: p115-CTD (p115, a.a. 780-930) (domain or fragment)
chain: SARDSEQVAELKQELATLKSQLNSQSVEITKLQTEKQELLQKTEAFAKSVEVQGETETIIATKTTDVEGRLSALLQETKELKNEIKALSEERTAIKEQLDSSNSTIAILQTEKDKLELEITDSKKEQDDLLVLLADQDQKILSLKNKLKDL

The target of experiment [1] is Importin-α(ΔIBB) (Importin-α lacking the IBB domain, a.a. 70-524) (mouse, UniProt P52293 70-524). Put plainly: ITC; 200 mM NaCl.
For experiment [2], the target named is B1. Put plainly: ITC.
The target in experiment [3] is B2. Put plainly: ITC.
The target in experiment [4] is T1, Importin-α FL (full-length Importin-α), recombinant (human, UniProt P52292 1-529). Put plainly: ITC; phospho-S25.
For experiment [5], the target named is Importin-β, recombinant, non-tagged (human, UniProt Q14974 1-876). Put plainly: ITC; phospho-S25.
Chain of Importin-β, recombinant, non-tagged (Q14974 whole entry): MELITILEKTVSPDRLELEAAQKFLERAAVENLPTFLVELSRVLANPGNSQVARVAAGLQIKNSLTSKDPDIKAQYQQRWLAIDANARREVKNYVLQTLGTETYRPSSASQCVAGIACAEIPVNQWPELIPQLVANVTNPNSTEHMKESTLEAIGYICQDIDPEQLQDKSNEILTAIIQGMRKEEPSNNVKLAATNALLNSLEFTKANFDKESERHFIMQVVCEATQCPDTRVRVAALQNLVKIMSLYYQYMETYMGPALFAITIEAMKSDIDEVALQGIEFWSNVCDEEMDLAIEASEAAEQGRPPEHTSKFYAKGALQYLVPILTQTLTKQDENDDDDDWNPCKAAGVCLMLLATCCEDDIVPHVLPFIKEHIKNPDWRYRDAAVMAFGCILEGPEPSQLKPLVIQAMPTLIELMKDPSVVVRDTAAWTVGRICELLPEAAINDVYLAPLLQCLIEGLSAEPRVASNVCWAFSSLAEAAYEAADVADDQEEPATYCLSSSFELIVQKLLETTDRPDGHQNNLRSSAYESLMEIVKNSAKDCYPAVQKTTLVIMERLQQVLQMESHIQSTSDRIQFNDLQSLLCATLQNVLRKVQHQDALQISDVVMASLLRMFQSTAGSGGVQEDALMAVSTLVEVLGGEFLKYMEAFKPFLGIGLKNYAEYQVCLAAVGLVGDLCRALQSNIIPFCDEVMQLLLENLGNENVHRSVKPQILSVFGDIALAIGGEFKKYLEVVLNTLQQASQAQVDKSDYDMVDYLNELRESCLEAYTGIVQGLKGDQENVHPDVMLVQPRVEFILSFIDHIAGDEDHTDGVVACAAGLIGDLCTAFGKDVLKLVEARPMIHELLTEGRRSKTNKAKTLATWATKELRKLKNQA
The target of experiment [6] is T1, Importin-α FL (full-length Importin-α), …. Put plainly: ITC.

Molecule B1 gave a Kd in experiment [1] of 227 nM.
As for B2, the Kd in experiment [1] is 322 nM.
On to B3, for which the figures for the Kd in experiment [2] and in experiment [3] were 985 nM and 823 nM, respectively.
Take AKKKLREYQQRN[pS]PGVPTGAKKKKKIKN [GM130-NLS phospho-S25 (synthetic peptide with a phosphate moiety on Ser-25 of GM130, a.a. 13-40)]: the figures for the Kd in experiment [4] and in experiment [5] were 2100 nM and 270 nM, respectively.
Regarding AKKKLREYQQRNSPGVPTGAKKKKKIK [GM130-NLS WT peptide], the dissociation constant Kd in experiment [6] was 6.9 µM.
